Source: patent publication US20170360931A1

B1: 042-100809-2F04 (antibody, V domains shown)
VH: EVQLVESGGGLVQPGGSLRLSCVASGFTFSTPWMTWIRQAPGKGLEWVAHIKQDGSETYYVDSVKGRFTISRDNAKNSLYLQMNSLKAEDTALYYCARMTRESSENYWGQGTLVTVSS
VL: DVVMTQSPLSLPVTLGQPASISCRSSQSLVYSDGDTFLEWFQQRPGQSPRRLIYKVSNRDSGVPDRFSGSGSGTDFTLKISRVEAEDVGLYYCMQHTHWPHTFGQGTKVEIK
B2: S6-B01 (antibody, V domains shown)
VH: QVQLVQSGAEVKKPGASVKVSCKASGYTFNSYGISWVRQAPGQGLEWMGWISAYTGDTKFAQNVQGRVTMTIDTSTSTAYMELRSLRSDDTAVYYCARHYLQGVVVVDPYSHAMDVWGQGTTVTVSS
VL: EIVLTQSPGTLSFFPGERATLSCRASQTINSRFLAWYQQKPGQAPRLLIYGASSRATGIPDRFSGRGSGTDFTLAISRLEPEDFAVYYCQLYGSSRTTFGQGTKVEIK

Columns and labels:
Assay in all cases: cell-based or functional assay
[1] = target: HA of wild type A/Shanghai/1/2013 (H7N9) virus (influenza A virus A/Shanghai/1/2013 (H7N9))
[2] = target: HA of A/California/04/2009 (H1N1) virus (influenza A virus A/California/04/2009 (H1N1))
[3] = target: all H3N2 and H7 strains (plaque reduction assay)

Binder	PRNT50 (plaque reduction assay) [1] [µg/mL]	PRNT50 (plaque reduction assay) [2] [µg/mL]	PRNT50 (plaque reduction assay) [3] [µg/mL]
B1	27		
B2		> 120	3 to 6
